The nature of the series: isoelectric point (pI) as stated. Type of series: physicochemical. The protocol:
For the second study this procedure was modified to include a chromatographic enrichment/purification step over a HiTrap SP-Sepharose cation exchange column (GE Healthcare). Both MCPT-201 and alpha cobratoxin are highly positively charged proteins with a pI of 8.2. They are routinely purified on cation exchange resigns such as SP-Sepharose. The sample buffer in the Franz cell receiving chamber was changed to 50 mM MES-NaOH, 20 mM NaCl, 0.1 mM EDTA, pH 6.0 in order to make samples directly compatible with cation exchange chromatography over SP-Sepharose.

In the case of alpha cobratoxin, the pI was found to be 8.2.

The values above are taken from patent US11752086B2, “Topical formulations and methods” (MYOCEPT INC., priority 2017, dated 2023).
